# Data: the supplement of paper PMC6755084
# Tested on: F1*sub RNA substrate (template-directed ligation)
# Experiment: fraction ligated after 30 min (ligated reads / total reads); higher = more ligase activity; sequences stand for … in GAGACCGCAACTGAAAAGTTGT…AGTTCTGCACGTAGAAGCAAAAGGC
# Settings: 42 °C
# How it was run: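 Ligase ribozyme variants were made from oligo-pool templates by PCR amplification, T7 transcription and gel purification. After gel separation, ligated and unligated bands were reverse transcribed with barcoded primers and sequenced on a MiSeq, with core bases filtered at quality ≥20. The fraction ligated for each variant was the number of ligated reads divided by total reads.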
row,Sequence,fraction ligated
1,TATCACTTGCGTAAGCACTTTGGATGGGTTG [3d1658],0.832
2,TATCACTTGCGTAAGCACTTTGGATGGTTGA [3d1656],0.705
3,TATCACTTGCGTAAGCACTTTGGTGGGTTGA [3d1654],0.366
4,TATCACTTGCGTAAGCATTTGGATGGGTTGA [3d1651],0.83
5,TATCACTTGCGTAAGCCTTTGGATGGGTTGA [3d1650],0.806
6,TATCACTTGCGTAGAACTTTGGATGGGTTGA [3d1629],0.862
7,TATCACTTGCGTAGACACTTGGATGGGTTGA [3d1632],0.779
8,TATCACTTGCGTAGACACTTTGATGGGTTGA [3d1633],0.803
9,TATCACTTGCGTAGACACTTTGGAGGGTTGA [3d1635],0.105
10,TATCACTTGCGTAGACACTTTGGATGGGTTA [3d1637],0.781
11,TATCACTTGCGTAGACACTTTGGATGGGTTG [3d1638],0.816
12,TATCACTTGCGTAGACACTTTGGATGGGTTGA [2d166],0.835
13,TATCACTTGCGTAGACACTTTGGATGGTTGA [3d1636],0.296
14,TATCACTTGCGTAGACACTTTGGTGGGTTGA [3d1634],0.0947
15,TATCACTTGCGTAGACATTTGGATGGGTTGA [3d1631],0.821
16,TATCACTTGCGTAGACCTTTGGATGGGTTGA [3d1630],0.817
17,TATCACTTGCGTAGCACTTTGGATGGGTTGA [3d1628],0.859
18,TATCACTTGCGTGACACTTTGGATGGGTTGA [3d1626],0.829
19,TATCACTTGCTAAACACTTTGGATGGGTTGA [3d1601],0.777
20,TATCACTTGCTAAGAACTTTGGATGGGTTGA [3d1603],0.831
21,TATCACTTGCTAAGACACTTGGATGGGTTGA [3d1606],0.782
22,TATCACTTGCTAAGACACTTTGATGGGTTGA [3d1607],0.738
23,TATCACTTGCTAAGACACTTTGGAGGGTTGA [3d1609],0.13

row,Sequence,fraction ligated
1,TATCACTTGCTAAGACACTTTGGATGGGTTA [3d1611],0.773
2,TATCACTTGCTAAGACACTTTGGATGGGTTG [3d1612],0.8
3,TATCACTTGCTAAGACACTTTGGATGGGTTGA [2d164],0.822
4,TATCACTTGCTAAGACACTTTGGATGGTTGA [3d1610],0.351
5,TATCACTTGCTAAGACACTTTGGTGGGTTGA [3d1608],0.11
6,TATCACTTGCTAAGACATTTGGATGGGTTGA [3d1605],0.849
7,TATCACTTGCTAAGACCTTTGGATGGGTTGA [3d1604],0.811
8,TATCACTTGCTAAGCACTTTGGATGGGTTGA [3d1602],0.834
9,TATCACTTGCTAGACACTTTGGATGGGTTGA [3d1600],0.805
10,TATCACTTGGAAGACACTTTGGATGGGTTGA [3d1585],0.823
11,TATCACTTGGTAAACACTTTGGATGGGTTGA [3d1587],0.826
12,TATCACTTGGTAAGAACTTTGGATGGGTTGA [3d1589],0.804
13,TATCACTTGGTAAGACACTTGGATGGGTTGA [3d1592],0.795
14,TATCACTTGGTAAGACACTTTGATGGGTTGA [3d1593],0.776
15,TATCACTTGGTAAGACACTTTGGAGGGTTGA [3d1595],0.0523
16,TATCACTTGGTAAGACACTTTGGATGGGTTA [3d1597],0.733
17,TATCACTTGGTAAGACACTTTGGATGGGTTG [3d1598],0.809
18,TATCACTTGGTAAGACACTTTGGATGGGTTGA [2d163],0.813
19,TATCACTTGGTAAGACACTTTGGATGGTTGA [3d1596],0.134
20,TATCACTTGGTAAGACACTTTGGTGGGTTGA [3d1594],0.047
21,TATCACTTGGTAAGACATTTGGATGGGTTGA [3d1591],0.832
22,TATCACTTGGTAAGACCTTTGGATGGGTTGA [3d1590],0.765
23,TATCACTTGGTAAGCACTTTGGATGGGTTGA [3d1588],0.818

row,Sequence,fraction ligated
1,TATCACTTGGTAGACACTTTGGATGGGTTGA [3d1586],0.829
2,TATCACTTGTAAGACACTTTGGATGGGTTGA [3d1311],0.837
3,TATCACTTGTCAAACACTTTGGATGGGTTGA [3d1811],0.802
4,TATCACTTGTCAAGAACTTTGGATGGGTTGA [3d1813],0.839
5,TATCACTTGTCAAGACACTTGGATGGGTTGA [3d1816],0.76
6,TATCACTTGTCAAGACACTTTGATGGGTTGA [3d1817],0.715
7,TATCACTTGTCAAGACACTTTGGAGGGTTGA [3d1819],0.138
8,TATCACTTGTCAAGACACTTTGGATGGGTTA [3d1821],0.781
9,TATCACTTGTCAAGACACTTTGGATGGGTTG [3d1822],0.777
10,TATCACTTGTCAAGACACTTTGGATGGGTTGA [2d194],0.809
11,TATCACTTGTCAAGACACTTTGGATGGTTGA [3d1820],0.288
12,TATCACTTGTCAAGACACTTTGGTGGGTTGA [3d1818],0.128
13,TATCACTTGTCAAGACATTTGGATGGGTTGA [3d1815],0.829
14,TATCACTTGTCAAGACCTTTGGATGGGTTGA [3d1814],0.762
15,TATCACTTGTCAAGCACTTTGGATGGGTTGA [3d1812],0.785
16,TATCACTTGTCAGACACTTTGGATGGGTTGA [3d1810],0.824
17,TATCACTTGTCGAAAACTTTGGATGGGTTGA [3d1915],0.798
18,TATCACTTGTCGAAACACTTGGATGGGTTGA [3d1918],0.776
19,TATCACTTGTCGAAACACTTTGATGGGTTGA [3d1919],0.721
20,TATCACTTGTCGAAACACTTTGGAGGGTTGA [3d1921],0.0563
21,TATCACTTGTCGAAACACTTTGGATGGGTTA [3d1923],0.756
22,TATCACTTGTCGAAACACTTTGGATGGGTTG [3d1924],0.817
23,TATCACTTGTCGAAACACTTTGGATGGTTGA [3d1922],0.0984

row,Sequence,fraction ligated
1,TATCACTTGTCGAAACACTTTGGTGGGTTGA [3d1920],0.0386
2,TATCACTTGTCGAAACATTTGGATGGGTTGA [3d1917],0.821
3,TATCACTTGTCGAAACCTTTGGATGGGTTGA [3d1916],0.78
4,TATCACTTGTCGAACACTTTGGATGGGTTGA [3d1903],0.802
5,TATCACTTGTCGAAGAACTTGGATGGGTTGA [3d1936],0.794
6,TATCACTTGTCGAAGAACTTTGATGGGTTGA [3d1937],0.796
7,TATCACTTGTCGAAGAACTTTGGAGGGTTGA [3d1939],0.111
8,TATCACTTGTCGAAGAACTTTGGATGGGTTA [3d1941],0.779
9,TATCACTTGTCGAAGAACTTTGGATGGGTTG [3d1942],0.798
10,TATCACTTGTCGAAGAACTTTGGATGGTTGA [3d1940],0.187
11,TATCACTTGTCGAAGAACTTTGGTGGGTTGA [3d1938],0.173
12,TATCACTTGTCGAAGAATTTGGATGGGTTGA [3d1935],0.776
13,TATCACTTGTCGAAGACACTGGATGGGTTGA [3d1957],0.767
14,TATCACTTGTCGAAGACACTTGATGGGTTGA [3d1958],0.663
15,TATCACTTGTCGAAGACACTTGGAGGGTTGA [3d1960],0.0758
16,TATCACTTGTCGAAGACACTTGGATGGGTTA [3d1962],0.721
17,TATCACTTGTCGAAGACACTTGGATGGGTTG [3d1963],0.794
18,TATCACTTGTCGAAGACACTTGGATGGTTGA [3d1961],0.106
19,TATCACTTGTCGAAGACACTTGGTGGGTTGA [3d1959],0.119
20,TATCACTTGTCGAAGACACTTTATGGGTTGA [3d1964],0.16
21,TATCACTTGTCGAAGACACTTTGAGGGTTGA [3d1966],0.0437
22,TATCACTTGTCGAAGACACTTTGATGGGTTA [3d1968],0.15
23,TATCACTTGTCGAAGACACTTTGATGGGTTG [3d1969],0.732

row,Sequence,fraction ligated
1,TATCACTTGTCGAAGACACTTTGATGGTTGA [3d1967],0.0642
2,TATCACTTGTCGAAGACACTTTGGAGGGTTA [3d1975],0.136
3,TATCACTTGTCGAAGACACTTTGGAGGGTTG [3d1976],0.08
4,TATCACTTGTCGAAGACACTTTGGAGGTTGA [3d1974],0.0837
5,TATCACTTGTCGAAGACACTTTGGATGGGTT [3d1979],0.763
6,TATCACTTGTCGAAGACACTTTGGATGGGTTA [2d219],0.803
7,TATCACTTGTCGAAGACACTTTGGATGGGTTG [2d220],0.856
8,TATCACTTGTCGAAGACACTTTGGATGGTTA [3d1977],0.364
9,TATCACTTGTCGAAGACACTTTGGATGGTTG [3d1978],0.432
10,TATCACTTGTCGAAGACACTTTGGATGGTTGA [2d218],0.615
11,TATCACTTGTCGAAGACACTTTGGGGGTTGA [3d1970],0.133
12,TATCACTTGTCGAAGACACTTTGGTGGGTTA [3d1972],0.103
13,TATCACTTGTCGAAGACACTTTGGTGGGTTG [3d1973],0.0779
14,TATCACTTGTCGAAGACACTTTGGTGGTTGA [3d1971],0.0847
15,TATCACTTGTCGAAGACACTTTGTGGGTTGA [3d1965],0.0368
16,TATCACTTGTCGAAGACATTGGATGGGTTGA [3d1950],0.787
17,TATCACTTGTCGAAGACATTTGATGGGTTGA [3d1951],0.329
18,TATCACTTGTCGAAGACATTTGGAGGGTTGA [3d1953],0.021
19,TATCACTTGTCGAAGACATTTGGATGGGTTA [3d1955],0.788
